Measured values from patent US20240401082A1 (Sanofi, published 2024).

How the values were obtained:
[1] = target: T1, human complement C1s enzyme (activated C1s) (human, UniProt P09871 16-437; P09871 438-688); assay: cell-based or functional assay
T1 sequence 1: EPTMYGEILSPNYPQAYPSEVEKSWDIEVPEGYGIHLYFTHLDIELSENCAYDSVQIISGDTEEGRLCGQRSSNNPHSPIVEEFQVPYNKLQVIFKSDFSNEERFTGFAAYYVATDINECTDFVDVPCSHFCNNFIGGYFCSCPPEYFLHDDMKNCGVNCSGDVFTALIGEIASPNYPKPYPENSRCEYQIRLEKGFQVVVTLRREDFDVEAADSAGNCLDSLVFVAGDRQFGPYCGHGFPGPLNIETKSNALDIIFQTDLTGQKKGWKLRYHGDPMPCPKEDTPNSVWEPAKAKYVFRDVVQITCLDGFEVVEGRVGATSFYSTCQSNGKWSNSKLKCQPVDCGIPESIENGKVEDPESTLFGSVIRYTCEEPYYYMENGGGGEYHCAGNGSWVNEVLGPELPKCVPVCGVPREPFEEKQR
T1 sequence 2: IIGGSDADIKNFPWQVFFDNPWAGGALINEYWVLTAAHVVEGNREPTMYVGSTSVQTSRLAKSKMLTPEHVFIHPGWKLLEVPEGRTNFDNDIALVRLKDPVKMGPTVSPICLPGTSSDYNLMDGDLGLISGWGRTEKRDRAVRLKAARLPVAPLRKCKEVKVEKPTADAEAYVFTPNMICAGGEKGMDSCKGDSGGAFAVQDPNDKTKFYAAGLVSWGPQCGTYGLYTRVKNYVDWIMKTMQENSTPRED

[2] = target: T2, human complement factor Bb (human, UniProt P00751 260-764); assay: cell-based or functional assay
T2 sequence (P00751 260-764): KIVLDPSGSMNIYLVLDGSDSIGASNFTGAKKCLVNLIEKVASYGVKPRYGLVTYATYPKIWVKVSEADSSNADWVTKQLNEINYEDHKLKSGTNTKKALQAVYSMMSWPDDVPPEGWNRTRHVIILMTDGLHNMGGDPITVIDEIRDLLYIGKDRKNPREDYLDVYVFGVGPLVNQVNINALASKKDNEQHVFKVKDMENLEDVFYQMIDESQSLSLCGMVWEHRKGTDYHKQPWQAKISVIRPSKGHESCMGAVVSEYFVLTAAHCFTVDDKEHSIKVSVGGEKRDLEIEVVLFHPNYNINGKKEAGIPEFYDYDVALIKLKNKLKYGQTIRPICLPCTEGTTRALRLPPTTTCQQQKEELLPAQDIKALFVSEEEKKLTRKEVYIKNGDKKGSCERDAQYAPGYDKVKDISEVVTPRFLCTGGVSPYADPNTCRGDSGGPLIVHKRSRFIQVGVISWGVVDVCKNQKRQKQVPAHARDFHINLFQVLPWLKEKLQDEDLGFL

[3] = target: T1, human complement C1s enzyme (activated …); assay: BLI (Octet), biotinylated target on streptavidin sensor
Source text: (§1) Bio-layer interferometry (BLI) was used to assess the recombinant proteins' target engagement to and binding affinity for complement C1s enzyme (active C1s or “C1s” herein) and factor Bb (Bb) (Complement Technology, Tyler, TX, USA). C1s and Bb were biotinylated with EZ-Link™ Sulfo-NHS-LC-LC-Biotin (Thermo Fisher, Waltham, MA, USA) according to manufacturer instructions. Biotinylated C1s or Bb was loaded on Octet® Streptavidin (SA) Biosensors (Sartorius, Göttingen, Germany), followed by a concentration range of purified proteins. To assess dual target engagement, biotinylated active C1s or Bb was loaded onto sensors, followed by purified proteins (“first association phase”), followed by the non-captured complement target (Bb or active C1s, non-biotinylated; “second association phase”). The assays were performed at 30° C. using PBS with 0.1% Tween 20 as a diluent (FIG. 3).

[4] = target: T2, human complement factor Bb; assay: as above
Source text: as §1

B1: construct #15: αC1s scFab-(G4S)3-αBb scFv (bispecific antibody)
chain: DIVLTQSPDSLAVSLGERATISCKASQSVDYDGDSYMNWYQQKPGQPPKILIYDASNLESGIPARFSGSGSGTDFTLTISSLEPEDFAIYYCQQSNEDPWTFGGGTKVEIKRTVAAPSVFIFPPSDEQLKSGTASVVCLLNNFYPREAKVQWKVDNALQSGNSQESVTEQDSKDSTYSLSSTLTLSKADYEKHKVYACEVTHQGLSSPVTKSFNRGECGGGGSGGGGSGGGGSGGGGSGGGGSGGGGSGGGGSQVQLVQSGAEVKKPGASVKLSCTASGFNIKDDYIHWVKQAPGQGLEWIGRIDPADGHTKYAPKFQVKVTITADTSTSTAYLELSSLRSEDTAVYYCARYGYGREVFDYWGQGTTVTVSSASTKGPSVFPLAPCSRSTSESTAALGCLVKDYFPEPVTVSWNSGALTSGVHTFPAVLQSSGLYSLSSVVTVPSSSLGTKTYTCNVDHKPSNTKVDKRVGGGGSGGGGSGGGGSEVQLVESGGGLVKPGGSLRLSCAASGFTFSNYAMSWVRQAPGKRLEWVATISNRGSYTYYPDSVKGRFTISRDNAKNSLYLQMNSLRAEDTALYYCARERPMDYWGQGTLVTVSSGGGGSGGGGSGGGGSDIQMTQSPSTLSASVGDRVTITCKASQDVGTAVAWYQQKPGKAPKLLIYWASTRHTGVPDRFSGSGSGTDFTLTISSLQAEDFAVYFCHQHSSNPLTFGQGTKLEIK
notes: Residues 1-20 were left out as the signal peptide, which is marked by boldface only
Which results are given for B1?
IC50 CP (Wieslab) [1]: 34.7 nM; IC50 AP (Wieslab) [2]: 405 nM; Kd [3]: 1.6 nM; koff [3]: 0.00057 s⁻¹; kon [3]: 370000 M⁻¹ s⁻¹; Kd [4]: 3.9 nM; koff [4]: 0.00045 s⁻¹; kon [4]: 120000 M⁻¹ s⁻¹

B2: construct #16: αC1s scFab-(G4S)3-αBb scFv-CM (bispecific antibody)
chain: DIVLTQSPDSLAVSLGERATISCKASQSVDYDGDSYMNWYQEKPGQPPKILIYDASNLESGIPARFSGSGSGTDFTLTISSLEPEDFAIYYCQQSNEDPWTFGGGTKVEIKRTVAAPSVFIFPPSDEQLKSGTASVVCLLNNFYPREAKVQWKVDNALQSGNSQESVTEQDSKDSTYSLSSTLTLSKADYEKHKVYACEVTHQGLSSPVTKSFNRGECGGGGSGGGGSGGGGSGGGGSGGGGSGGGGSGGGGSQVQLVQSGAEVKKPGASVKLSCTASGFNIKDDYIHWVKKAPGQGLEWIGRIDPADGHTKYAPKFQVKVTITADTSTSTAYLELSSLRSEDTAVYYCARYGYGREVFDYWGQGTTVTVSSASTKGPSVFPLAPCSRSTSESTAALGCLVKDYFPEPVTVSWNSGALTSGVHTFPAVLQSSGLYSLSSVVTVPSSSLGTKTYTCNVDHKPSNTKVDKRVGGGGSGGGGSGGGGSEVQLVESGGGLVKPGGSLRLSCAASGFTFSNYAMSWVREAPGKRLEWVATISNRGSYTYYPDSVKGRFTISRDNAKNSLYLQMNSLRAEDTALYYCARERPMDYWGQGTLVTVSSGGGGSGGGGSGGGGSDIQMTQSPSTLSASVGDRVTITCKASQDVGTAVAWYQKKPGKAPKLLIYWASTRHTGVPDRFSGSGSGTDFTLTISSLQAEDFAVYFCHQHSSNPLTFGQGTKLEIK
notes: as for B1
How did the “IC50 CP (Wieslab)” value [1] turn out when B2 was run?
The value was 35.4 nM.

And the “IC50 AP (Wieslab)” value [2]?
The value was 586 nM.

And the Kd [3]?
Its Kd is 1.4 nM.

And the koff [3]?
Its koff is 0.00051 s⁻¹.

What about the kon [3] of the same binder?
Its kon is 360000 M⁻¹ s⁻¹.

What about the Kd [4] of the same binder?
The Kd was 2.5 nM.

And the koff [4]?
Its koff is 0.00023 s⁻¹.

And the kon [4]?
Its kon is 90000 M⁻¹ s⁻¹.

B3: construct #7: αC1s scFab-(G4S)3-αBb scFab (bispecific antibody)
chain: DIVLTQSPDSLAVSLGERATISCKASQSVDYDGDSYMNWYQQKPGQPPKILIYDASNLESGIPARFSGSGSGTDFTLTISSLEPEDFAIYYCQQSNEDPWTFGGGTKVEIKRTVAAPSVFIFPPSDEQLKSGTASVVCLLNNFYPREAKVQWKVDNALQSGNSQESVTEQDSKDSTYSLSSTLTLSKADYEKHKVYACEVTHQGLSSPVTKSFNRGECGGGGSGGGGSGGGGSGGGGSGGGGSGGGGSGGGGSQVQLVQSGAEVKKPGASVKLSCTASGFNIKDDYIHWVKQAPGQGLEWIGRIDPADGHTKYAPKFQVKVTITADTSTSTAYLELSSLRSEDTAVYYCARYGYGREVFDYWGQGTTVTVSSASTKGPSVFPLAPCSRSTSESTAALGCLVKDYFPEPVTVSWNSGALTSGVHTFPAVLQSSGLYSLSSVVTVPSSSLGTKTYTCNVDHKPSNTKVDKRVGGGGSGGGGSGGGGSDIQMTQSPSTLSASVGDRVTITCKASQDVGTAVAWYQQKPGKAPKLLIYWASTRHTGVPDRFSGSGSGTDFTLTISSLQAEDFAVYFCHQHSSNPLTFGQGTKLEIKRTVAAPSVFIFPPSDEQLKSGTASVVCLLNNFYPREAKVQWKVDNALQSGNSQESVTEQDSKDSTYSLSSTLTLSKADYEKHKVYACEVTHQGLSSPVTKSFNRGECGGGGSGGGGSGGGGSGGGGSGGGGSGGGGSGGGGSEVQLVESGGGLVKPGGSLRLSCAASGFTFSNYAMSWVRQAPGKRLEWVATISNRGSYTYYPDSVKGRFTISRDNAKNSLYLQMNSLRAEDTALYYCARERPMDYWGQGTLVTVSSASTKGPSVFPLAPCSRSTSESTAALGCLVKDYFPEPVTVSWNSGALTSGVHTFPAVLQSSGLYSLSSVVTVPSSSLGTKTYTCNVDHKPSNTKVDKRV
notes: Signal peptide marked by boldface only
Which results are given for B3?
IC50 CP (Wieslab) [1]: 45.9 nM; IC50 AP (Wieslab) [2]: 570 nM; Kd [3]: 1.8 nM; koff [3]: 0.00047 s⁻¹; kon [3]: 260000 M⁻¹ s⁻¹; Kd [4]: 9.3 nM; koff [4]: 0.00054 s⁻¹; kon [4]: 60000 M⁻¹ s⁻¹

B4: construct #11: αC1s scFab-(G4S)3-αBb scFab-CM (bispecific antibody)
chain: DIVLTQSPDSLAVSLGERATISCKASQSVDYDGDSYMNWYQEKPGQPPKILIYDASNLESGIPARFSGSGSGTDFTLTISSLEPEDFAIYYCQQSNEDPWTFGGGTKVEIKRTVAAPSVFIFPPSDEQLKSGTASVVCLLNNFYPREAKVQWKVDNALQSGNSQESVTEQDSKDSTYSLSSTLTLSKADYEKHKVYACEVTHQGLSSPVTKSFNRGECGGGGSGGGGSGGGGSGGGGSGGGGSGGGGSGGGGSQVQLVQSGAEVKKPGASVKLSCTASGFNIKDDYIHWVKKAPGQGLEWIGRIDPADGHTKYAPKFQVKVTITADTSTSTAYLELSSLRSEDTAVYYCARYGYGREVFDYWGQGTTVTVSSASTKGPSVFPLAPCSRSTSESTAALGCLVKDYFPEPVTVSWNSGALTSGVHTFPAVLQSSGLYSLSSVVTVPSSSLGTKTYTCNVDHKPSNTKVDKRVGGGGSGGGGSGGGGSDIQMTQSPSTLSASVGDRVTITCKASQDVGTAVAWYQKKPGKAPKLLIYWASTRHTGVPDRFSGSGSGTDFTLTISSLQAEDFAVYFCHQHSSNPLTFGQGTKLEIKRTVAAPAVFIFPPSDEQLKSGTASVVCLLKNFYPREAKVQWKVDNALQSGNSQESVTEQDSKDSTYSLSSTLTLSKADYEKHKVYACEVTHQGLSSPVTKSFNRGECGGGGSGGGGSGGGGSGGGGSGGGGSGGGGSGGGGSEVQLVESGGGLVKPGGSLRLSCAASGFTFSNYAMSWVREAPGKRLEWVATISNRGSYTYYPDSVKGRFTISRDNAKNSLYLQMNSLRAEDTALYYCARERPMDYWGQGTLVTVSSASTKGPSVFPLAPCSRSTSESTAALGCLVKDYFPEPVTVSWNSGALTSGVHTFPAVLQSSGLYSLSSVVEVPSSSLGTKTYTCNVDHKPSNTKVDKRV
notes: as for B1
For B4, which “IC50 CP (Wieslab)” value [1] is on record?
Its value is 49.7 nM.

And the “IC50 AP (Wieslab); curve not saturated, estimated” value [2]?
Its value is roughly 1000 nM.

What about the Kd [3] of the same binder?
The Kd was 2.7 nM.

What about the koff [3] of the same binder?
The koff was 0.00058 s⁻¹.

What about the kon [3] of the same binder?
The kon was 210000 M⁻¹ s⁻¹.

And the Kd [4]?
Its Kd is 8.8 nM.

And the koff [4]?
The koff was 0.00051 s⁻¹.

What about the kon [4] of the same binder?
Its kon is 60000 M⁻¹ s⁻¹.
